Reference: patent US20110300138A1 (published 2011)
Like-named read-outs stand apart in the source and are kept apart here.

Legend:
TSHR260-AP (human) [1] = assay: TSHR260-AP bridge ELISA (full length TSHR on wells, TSHR260-AP in solution); IgG 1 µg/mL diluted in assay buffer
[2] = biological target: TSHR260-alkaline phosphatase (TSHR260-AP) (human) (UniProt P05187); assay: TSHR260-AP bridge ELISA, full length TSHR on wells; 0.05 µg/mL, diluted in HBD
[3] = biological target: human TSH receptor (full length, wild type) expressed on CHO cells (human) (UniProt P16473); assay: cell-based or functional assay
[4] = biological target: human TSH receptor (wild type), expressed on transfected CHO cells (human) (UniProt P16473); assay: cell-based or functional assay
[5] = biological target: human TSHR (thyroid stimulating hormone receptor) expressed in transfected CHO cells (human) (UniProt P16473); assay: cell-based or functional assay
[6] = biological target: human TSHR expressed in CHO cells (human) (UniProt P16473); assay: cell-based or functional assay
[7] = biological target: human TSH receptor (full length, wild type) expressed in CHO cells (human) (UniProt P16473); assay: cell-based or functional assay
[8] = biological target: human TSH receptor (full length, wild type) expressed in CHO cells (human) (UniProt P16473); assay: cell-based or functional assay; remark: listed apart in the source
[9] = biological target: TSHR260-alkaline phosphatase (TSHR260-AP) (human) (UniProt P05187); assay: TSHR260-AP bridge ELISA, full length TSHR on wells; 250 µg/mL, diluted in assay buffer
TSHR260-AP (human) [10] = assay: TSHR260-AP bridge ELISA (full length TSHR on wells, TSHR260-AP in solution); IgG 0.05 µg/mL diluted in assay buffer
[11] = biological target: TSHR260-alkaline phosphatase (TSHR260-AP) (human) (UniProt P05187); assay: TSHR260-AP bridge ELISA, full length TSHR on wells; 1 µg/mL, diluted in HBD
TSHR260-AP (human) [12] = assay: TSHR260-AP bridge ELISA (full length TSHR on wells, TSHR260-AP in solution); IgG 0.05 µg/mL diluted in HBD serum
[13] = biological target: human TSH receptor (full length, wild type) expressed in CHO cells (human) (UniProt P16473); assay: cell-based or functional assay; remark: listed apart in the source
[14] = biological target: TSHR260-alkaline phosphatase (TSHR260-AP) (human) (UniProt P05187); assay: TSHR260-AP bridge ELISA, full length TSHR on wells; 0.1 µg/mL, diluted in HBD
TSHR260-AP (human) [15] = assay: TSHR260-AP bridge ELISA (full length TSHR on wells, TSHR260-AP in solution); IgG 10 µg/mL diluted in HBD serum
[16] = biological target: TSHR260-alkaline phosphatase (TSHR260-AP) (human) (UniProt P05187); assay: TSHR260-AP bridge ELISA, full length TSHR on wells; 100 µg/mL, diluted in HBD
[17] = biological target: TSHR260-alkaline phosphatase (TSHR260-AP) (human) (UniProt P05187); assay: TSHR260-AP bridge ELISA, full length TSHR on wells; 250 µg/mL, diluted in HBD
TSHR260-AP (human) [18] = assay: TSHR260-AP bridge ELISA (full length TSHR on wells, TSHR260-AP in solution); IgG 100 µg/mL diluted in HBD serum
[19] = biological target: TSHR260-alkaline phosphatase (TSHR260-AP) (human) (UniProt P05187); assay: TSHR260-AP bridge ELISA, full length TSHR on wells; 10 µg/mL, diluted in HBD
TSHR260-AP (human) [20] = assay: TSHR260-AP bridge ELISA (full length TSHR on wells, TSHR260-AP in solution); IgG 10 µg/mL diluted in assay buffer
TSHR260-AP (human) [21] = assay: TSHR260-AP bridge ELISA (full length TSHR on wells, TSHR260-AP in solution); IgG 0.01 µg/mL diluted in assay buffer

Mean absorbance at 405 nm (absorbance at 405 nm) (TSHR260-AP (human) [1]): -0.004
Mean absorbance at 405 nm (absorbance at 405 nm) [2]: -0.006
% Inhibition of M22 IgG (3 ng/mL) stimulation; 100 µg/ml 5B3 IgG [3]: 0%
% Inhibition of pTSH (1 ng/mL) stimulation; 10 µg/mL 5B3 IgG [3]: 0%
% Inhibition of pTSH (1 ng/mL) stimulation; 100 µg/mL 5B3 IgG [3]: 0%
Cyclic AMP concentration in hypotonic medium; 100 µg/mL 5B3 IgG alone [3]: 2.2 pmol/mL
Cyclic AMP concentration in isotonic medium; 100 µg/mL 5B3 IgG alone [3]: 1.4 pmol/mL
Cyclic AMP concentration; 1 ng/mL pTSH + 10 µg/mL 5B3 IgG [3]: 80.7 pmol/mL
Cyclic AMP concentration; 1 ng/mL pTSH + 100 µg/mL 5B3 IgG [3]: 79.3 pmol/mL
Cyclic AMP concentration; 3 ng/mL M22 IgG + 100 µg/ml 5B3 IgG [3]: 41.8 pmol/mL
Cyclic AMP concentration; 100 µg/mL 5B3 IgG alone (no TSH) [3]: 2.6 pmol/mL
Cyclic AMP concentration; 5B3 IgG 100 µg/mL alone [3]: 1.2 pmol/mL
% Inhibition (constitutive activity); 0.01 µg/mL 5B3 IgG [4]: 0%
% Inhibition (constitutive activity); 0.1 µg/mL 5B3 IgG [4]: 0%
% Inhibition (constitutive activity); 0.2 µg/mL 5B3 IgG [4]: 8.2%
% Inhibition (constitutive activity); 1 µg/mL 5B3 IgG [4]: 6.3%
% Inhibition (constitutive activity); 2 µg/mL 5B3 IgG [4]: 12.9%
% Inhibition; 5B3 IgG 0.1 µg/mL + T11 [4]: 29.8%
% Inhibition; 5B3 IgG 1 µg/mL + T11 [4]: 21.4%
% Inhibition; 5B3 IgG 10 µg/mL + T11 [4]: 25.4%
% Inhibition; 5B3 IgG 100 µg/mL + T11 [4]: 27%
% Inhibition; pTSH 3 ng/mL + 10 µg/mL 5B3 [4]: 0%
% Inhibition; pTSH 3 ng/mL + 100 µg/mL 5B3 [4]: 0.5%
Cyclic AMP concentration; 100 µg/mL 5B3 alone [4]: 0.9 pmol/mL
Cyclic AMP concentration; 5B3 IgG 0.1 µg/mL + T11 [4]: 17.7 pmol/mL
Cyclic AMP concentration; 5B3 IgG 1 µg/mL + T11 [4]: 19.8 pmol/mL
Cyclic AMP concentration; 5B3 IgG 10 µg/mL + T11 [4]: 18.8 pmol/mL
Cyclic AMP concentration; 5B3 IgG 100 µg/mL + T11 [4]: 18.4 pmol/mL
Cyclic AMP concentration; 5B3 IgG 100 µg/mL alone [4]: 1 pmol/mL
Cyclic AMP concentration; pTSH 3 ng/mL + 10 µg/mL 5B3 [4]: 66.9 pmol/mL
Cyclic AMP concentration; pTSH 3 ng/mL + 100 µg/mL 5B3 [4]: 63.9 pmol/mL
Cyclic AMP production (constitutive activity); 0.01 µg/mL 5B3 IgG [4]: 58.2 pmol/mL
Cyclic AMP production (constitutive activity); 0.1 µg/mL 5B3 IgG [4]: 58.8 pmol/mL
Cyclic AMP production (constitutive activity); 0.2 µg/mL 5B3 IgG [4]: 53.3 pmol/mL
Cyclic AMP production (constitutive activity); 1 µg/mL 5B3 IgG [4]: 54.4 pmol/mL
Cyclic AMP production (constitutive activity); 2 µg/mL 5B3 IgG [4]: 50.6 pmol/mL
% Inhibition; 3 ng/mL M22 IgG + 10 µg/mL 5B3 IgG [5]: 0%
% Inhibition; 3 ng/mL M22 IgG + 100 µg/mL 5B3 IgG [5]: 0%
Cyclic AMP concentration; 3 ng/mL M22 IgG + 10 µg/mL 5B3 IgG [5]: 44.7 pmol/mL
Cyclic AMP concentration; 3 ng/mL M22 IgG + 100 µg/mL 5B3 IgG [5]: 51.3 pmol/mL
Cyclic AMP concentration; 100 µg/mL 5B3 IgG [5]: 2.3 pmol/mL
% Inhibition; 3 ng/mL pTSH + 10 µg/mL 5B3 IgG [6]: 7%
% Inhibition; 3 ng/mL pTSH + 100 µg/mL 5B3 IgG [6]: 7%
% Inhibition; 5B3 IgG 10 µg/mL + 3 ng/mL pTSH [6]: 0%
% Inhibition; 5B3 IgG 100 µg/mL + 3 ng/mL pTSH [6]: 0%
% Inhibition; T1 serum + 100 µg/mL 5B3 IgG [7]: 4.9%
% Inhibition; T2 serum + 100 µg/mL 5B3 IgG [7]: 0%
% Inhibition; T3 serum + 100 µg/mL 5B3 IgG [7]: 14.4%
Cyclic AMP concentration; 100 µg/mL 5B3 IgG alone [7]: 1 pmol/mL
Cyclic AMP concentration; HBD + 100 µg/mL 5B3 IgG [7]: 2 pmol/mL
Cyclic AMP concentration; T1 serum + 100 µg/mL 5B3 IgG [7]: 94.9 pmol/mL
Cyclic AMP concentration; T2 serum + 100 µg/mL 5B3 IgG [7]: 62 pmol/mL
Cyclic AMP concentration; T3 serum + 100 µg/mL 5B3 IgG [7]: 54.2 pmol/mL
% Inhibition; T10 serum + 100 µg/mL 5B3 IgG [8]: 0%
% Inhibition; T11 serum + 100 µg/mL 5B3 IgG [8]: 3.2%
% Inhibition; T12 serum + 100 µg/mL 5B3 IgG [8]: 0%
Cyclic AMP concentration; 100 µg/mL 5B3 IgG alone [8]: 2 pmol/mL
Cyclic AMP concentration; HBD + 100 µg/mL 5B3 IgG [8]: 2.4 pmol/mL
Cyclic AMP concentration; T10 serum + 100 µg/mL 5B3 IgG [8]: 59.3 pmol/mL
Cyclic AMP concentration; T11 serum + 100 µg/mL 5B3 IgG [8]: 39.7 pmol/mL
Cyclic AMP concentration; T12 serum + 100 µg/mL 5B3 IgG [8]: 43.3 pmol/mL
Mean absorbance at 405 nm (absorbance at 405 nm) [9]: 0.018
Mean absorbance at 405 nm (absorbance at 405 nm) (TSHR260-AP (human) [10]): -0.009
Mean absorbance at 405 nm (absorbance at 405 nm) [11]: 0.049
Mean absorbance at 405 nm (absorbance at 405 nm) (TSHR260-AP (human) [12]): -0.006
% Inhibition; T4 serum + 100 µg/mL 5B3 IgG [13]: 30.3%
% Inhibition; T5 serum + 100 µg/mL 5B3 IgG [13]: 0%
% Inhibition; T6 serum + 100 µg/mL 5B3 IgG [13]: 1.8%
Cyclic AMP concentration; 100 µg/mL 5B3 IgG alone [13]: 2.6 pmol/mL
Cyclic AMP concentration; HBD + 100 µg/mL 5B3 IgG [13]: 3 pmol/mL
Cyclic AMP concentration; T4 serum + 100 µg/mL 5B3 IgG [13]: 55 pmol/mL
Cyclic AMP concentration; T5 serum + 100 µg/mL 5B3 IgG [13]: 66.7 pmol/mL
Cyclic AMP concentration; T6 serum + 100 µg/mL 5B3 IgG [13]: 81.5 pmol/mL
Mean absorbance at 405 nm (absorbance at 405 nm) [14]: -0.002
Mean absorbance at 405 nm (absorbance at 405 nm) (TSHR260-AP (human) [15]): -0.006
Mean absorbance at 405 nm (absorbance at 405 nm) [16]: 0.003
Mean absorbance at 405 nm (absorbance at 405 nm) [17]: 0.012
Mean absorbance at 405 nm (absorbance at 405 nm) (TSHR260-AP (human) [18]): 0.003
Mean absorbance at 405 nm (absorbance at 405 nm) [19]: -0.006
Mean absorbance at 405 nm (absorbance at 405 nm) (TSHR260-AP (human) [20]): -0.014
Mean absorbance at 405 nm (absorbance at 405 nm) (TSHR260-AP (human) [21]): 0.012
Substance: 5B3 IgG (antibody)
